Test results as given in patent US20240400663A1 (Regeneron, published 2024).

Legend:
Experiment in all cases: cell-based or functional assay
[1] = molecular target: PfRH5 of Plasmodium falciparum strain W2-mef (on live parasites) (Plasmodium falciparum)
[2] = molecular target: PfRH5 of Plasmodium falciparum strain Cam3.II (on live parasites) (Plasmodium falciparum)
[3] = molecular target: PfRH5 of Plasmodium falciparum strain D10 (on live parasites) (Plasmodium falciparum)
[4] = molecular target: PfRH5 of Plasmodium falciparum strain RF7 (on live parasites) (Plasmodium falciparum)
[5] = molecular target: PfRH5 of Plasmodium falciparum strain 7G8 (on live parasites) (Plasmodium falciparum)
[6] = molecular target: T1, PfRH5 of Plasmodium falciparum strain Dd2 (on live parasites) (Plasmodium falciparum)
[7] = molecular target: PfRH5 of Plasmodium falciparum strain FCR-1/FVO (on live parasites) (Plasmodium falciparum)
[8] = molecular target: PfRH5 of Plasmodium falciparum strain HB3 (on live parasites) (Plasmodium falciparum)
[9] = molecular target: T1, PfRH5 of Plasmodium falciparum strain …; remark: listed apart in the source

B1: H1H29209P2 (antibody, V domains shown)
VH: QLQLQESGPGLVKPSETLSLTCTVSGGSISSRSHYWGWIRQPPGKGLEWIGSIYYSGSTYYNPSLKSRVTISVDTSKNQFSLKLSSVTAADTAVYYCARLGWYAEEAFEIWGQGTMVTVSS
VL: not shown
With B1 the “Max growth inhibition (%) W2-mef” value [1] was 39.6%, the “Max growth inhibition (%) Cam3.II” value [2] was 47.3% and the “Max growth inhibition (%) D10” value [3] was 72.7%. For the same binder, the “Max growth inhibition (%) RF7” value [4] was 11.9%, the “Max growth inhibition (%) 7G8” value [5] was 49.9% and the “Max growth inhibition (%) Dd2” value [6] was 38.1%. For the same binder, the “Max growth inhibition (%) FCR-1/FVO” value [7] was 19.2% and the “Max growth inhibition (%) HB3” value [8] was 52.4%.

B2: H1H29214P2 (antibody, V domains shown)
VH: QLQLQESGPGLVKPSETLSLTCTVSGGSISSSSYYWGWIRQPPGKGLEWIGSIYYSGSTYYNPSLKSRVTISVDTSKNQFSLKLSSVTAADTAVYYCARQGRWERENFDYWGQGTLVTVSS
VL: not shown
With B2 the “Max growth inhibition (%) W2-mef” value [1] was 52.7%, the “Max growth inhibition (%) Cam3.II” value [2] was 46.7% and the “Max growth inhibition (%) D10” value [3] was 76.5%. For the same binder, the “Max growth inhibition (%) RF7” value [4] was 11.2%, the “Max growth inhibition (%) 7G8” value [5] was 56.7% and the “Max growth inhibition (%) Dd2” value [6] was 47.2%. For the same binder, the “Max growth inhibition (%) FCR-1/FVO” value [7] was 13.1% and the “Max growth inhibition (%) HB3” value [8] was 59.1%.

B3: H1H29207P2 (antibody, V domains shown)
VH: EVQLVESGGGLVQPGGSLRLSCAASGFTFSSYAMNWVRQAPGKGLEWVSAVSGSADITNYADSVKGRFTISRDNSKHTLYLQMNSLRAEDTAVYYCAKDKVYNWNYGIYYGMDVWGQGTTVTVSS
VL: not shown
In the case of B3, the “Max growth inhibition (%) W2-mef” value [1] is reported as 65.2%, the “Max growth inhibition (%) Cam3.II” value [2] is reported as 45.3% and the “Max growth inhibition (%) D10” value [3] is reported as 73.9%. The “Max growth inhibition (%) RF7” value [4] was 31.1%, the “Max growth inhibition (%) 7G8” value [5] was 58.7% and the “Max growth inhibition (%) Dd2” value [6] was 61.3%. The “Max growth inhibition (%) FCR-1/FVO” value [7] was 69.2% and the “Max growth inhibition (%) HB3” value [8] was 49.3%.

B4: H1H29215P2 (antibody, V domains shown)
VH: QVQLQQWGAGLLKPSETLSLTCAVSDESFSDYYWTWIRQPPGKGLEWIGEITHSGSTHYNPSLKSRVTLSVDTSKNHFSLSLNSVTAADTAIYYCARGGDYGGLLDYWGQGTLVTVSS
VL: not shown
For B4, the “Max growth inhibition (%) W2-mef” value [1] was 37.2%, the “Max growth inhibition (%) Cam3.II” value [2] was 27.2% and the “Max growth inhibition (%) D10” value [3] was 35.8%. The “Max growth inhibition (%) RF7” value [4] was 11.3%, the “Max growth inhibition (%) 7G8” value [5] was 33.2% and the “Max growth inhibition (%) Dd2” value [6] was 22.8%. For the same binder, the “Max growth inhibition (%) FCR-1/FVO” value [7] was 54% and the “Max growth inhibition (%) HB3” value [8] was 30.1%.

B5: H1H29143P (antibody, V domains shown)
VH: EVQLVESGGGLVQPGGSLRLSCAASGFTFNNYAMSWVRQAPGRGLEWVSAISGSGDSTYYSDSVKGRFTISRDNSKNTLYLQMNSLRAEDTAVYYCAKDQGLYYYGSGSFDYWGQGTLVTVSS
VL: not shown
B5 was tested, and the “Maximum growth inhibition (%) Dd2” value [9] was 56%, the “Max growth inhibition (%) W2-mef” value [1] was 58.3% and the “Max growth inhibition (%) Cam3.II” value [2] was 53.2%. The “Max growth inhibition (%) D10” value [3] was 79.4%, the “Max growth inhibition (%) 7G8” value [5] was 61.9% and the “Max growth inhibition (%) Dd2” value [6] was 62.7%. For the same binder, the “Max growth inhibition (%) FCR-1/FVO” value [7] was 67.2% and the “Max growth inhibition (%) HB3” value [8] was 60.9%.

B6: H1H29127P (antibody, V domains shown)
VH: QVQLVESGGGVVQPGRSLRLSCAASGFTFSSYGMHWVRQAPGKGLEWVAAIWYDGSNKYYADSVKGRFTISRDNSKNTLYLQMNSLRAEDTAVYFCARGEHYYGSGPFDPWGQGTLVTVSS
VL: DIQMTQSPSSLSASVGDRVTITCRASQSISNYLNWYQQKPGKAPKLLIFAASSLQSGVPSRFSGSGSGTDFTLTISSLQPEDFATYYCQQSYSSPLTFGGGTKVEIKR
In the case of B6, the “Maximum growth inhibition (%) Dd2” value [9] is reported as 56.9%, the “Max growth inhibition (%) W2-mef” value [1] is reported as 53.6% and the “Max growth inhibition (%) Cam3.II” value [2] is reported as 47%. For the same binder, the “Max growth inhibition (%) D10” value [3] was 74.4%, the “Max growth inhibition (%) RF7” value [4] was 25.7% and the “Max growth inhibition (%) 7G8” value [5] was 61.2%. The “Max growth inhibition (%) Dd2” value [6] was 64.7%, the “Max growth inhibition (%) FCR-1/FVO” value [7] was 61.1% and the “Max growth inhibition (%) HB3” value [8] was 59.4%.

B7: H1H29196P2 (antibody, V domains shown)
VH: EVQLVESGGDLVQPGGSLRLSCAASGFAVNGDYFSWVRQAPGKGLEWISVIYSSGNTYYADSVKGRFTISRHNSKNTLYLQMSSLRPEDTAVYYCARDFPPMSGADYWGQGTLVTVSS
VL: not shown
In the case of B7, the “Max growth inhibition (%) W2-mef” value [1] is reported as 17%, the “Max growth inhibition (%) Cam3.II” value [2] is reported as 6.09% and the “Max growth inhibition (%) D10” value [3] is reported as 14.3%. For the same binder, the “Max growth inhibition (%) RF7” value [4] was 3.78%, the “Max growth inhibition (%) 7G8” value [5] was 23.4% and the “Max growth inhibition (%) Dd2” value [6] was -1.65%. For the same binder, the “Max growth inhibition (%) FCR-1/FVO” value [7] was 21.9% and the “Max growth inhibition (%) HB3” value [8] was 26.8%.

B8: H1H29106P (antibody, V domains shown)
VH: QVQLVESGGGVVQSGRSLRLSCAASSFTFSSYGMHWVRQSPGKGLEWVAVISYDGSNKYYGDFVRGRFTISRDNSKNTLYLQMNSLRAEDTAMYYCAREVRRYYYYGMDVWGQGTTVTVSS
VL: not shown
B8 was tested, and the “Max growth inhibition (%) W2-mef” value [1] was 48.9%, the “Max growth inhibition (%) Cam3.II” value [2] was 51.7% and the “Max growth inhibition (%) D10” value [3] was 74.9%. The “Max growth inhibition (%) RF7” value [4] was 27.4%, the “Max growth inhibition (%) 7G8” value [5] was 55.5% and the “Max growth inhibition (%) Dd2” value [6] was 54%. For the same binder, the “Max growth inhibition (%) FCR-1/FVO” value [7] was 54.3% and the “Max growth inhibition (%) HB3” value [8] was 48.4%.

B9: H1H29104P (antibody, V domains shown)
VH: EVQLVESGGGLVQPGRSLRLSCAASGFRFDDYAMHWVRQAPGKGLEWVSGINWNSGGKGYADSVQGRFTISRDNAKNSLYLQMNSLRTEDTALYYCAKDRGIAARLLSRDAFDMWGQGTMVTVSS
VL: DIQLTQSPSFLSASVGDRVTITCWASQDVSSYLAWYQQKPGKSPKLLIFAASTLQGGIPSRFSGSGSGTEFTLTISSLRPEDFATYYCQHLNTYPYTFGQGTKLEIKR
For B9, the “Maximum growth inhibition (%) Dd2” value [9] was 54.1%, the “Max growth inhibition (%) W2-mef” value [1] was 47.4% and the “Max growth inhibition (%) Cam3.II” value [2] was 50%. For the same binder, the “Max growth inhibition (%) D10” value [3] was 55.7%, the “Max growth inhibition (%) RF7” value [4] was 23.6% and the “Max growth inhibition (%) 7G8” value [5] was 35.2%. For the same binder, the “Max growth inhibition (%) Dd2” value [6] was 61.3%, the “Max growth inhibition (%) FCR-1/FVO” value [7] was 67.4% and the “Max growth inhibition (%) HB3” value [8] was 39.8%.

B10: H1H29109P (antibody, V domains shown)
VH: EVQLVESGGGLVQPGRSLRLSCAVSGFTFDDYAMHWVRQAPGKGLEWVSGISWNSGDIDYADSVKGRFTISRDNAKNSLYLQMNSLRAEDTALYYCAKDTLSGTGTTWYYFDYWGQGTLVTVSS
VL: DIQLTQSPSFLSASVGDRVTITCWASQGISSYLIWYQQKPGKAPKLLIYAASTLQSGVPSRFSGSGSGTEFTLTISSLQPEDFATYYCQQVNSYPLTFGGGTKVEIKR
With B10 the “Max growth inhibition (%) W2-mef” value [1] was 37.9%, the “Max growth inhibition (%) Cam3.II” value [2] was 35.9% and the “Max growth inhibition (%) D10” value [3] was 44.8%. For the same binder, the “Max growth inhibition (%) RF7” value [4] was 8.24%, the “Max growth inhibition (%) 7G8” value [5] was 39% and the “Max growth inhibition (%) Dd2” value [6] was 42%. The “Max growth inhibition (%) FCR-1/FVO” value [7] was 56.7% and the “Max growth inhibition (%) HB3” value [8] was 32.2%.

B11: H1H29198P2 (antibody, V domains shown)
VH: QVQLVQSGAEVKKPGASVKVSCKVSGYTLTELSMHWVRQAPGKGLEWMGGFDPEHGKIIYAQKFQGRVTMTEDTSTDTAYMELSSLRSEDTAVYYCATFYNWNSYYFGMDVWGHGTTVTVSS
VL: not shown
With B11 the “Max growth inhibition (%) W2-mef” value [1] was -3.61%, the “Max growth inhibition (%) Cam3.II” value [2] was 14.7% and the “Max growth inhibition (%) D10” value [3] was 4.38%. The “Max growth inhibition (%) RF7” value [4] was 1.53%, the “Max growth inhibition (%) 7G8” value [5] was 5.31% and the “Max growth inhibition (%) Dd2” value [6] was 10.1%. For the same binder, the “Max growth inhibition (%) FCR-1/FVO” value [7] was 11.1% and the “Max growth inhibition (%) HB3” value [8] was 15.5%.
